Data as given in article PMC6800154.

Key:
[1] = molecular target: Focal adhesion kinase (FAK), endogenous in rat aortic smooth muscle cells (rat (endogenous in RASMs)) (UniProt O35346); assay: co-IP
YFP-FAK (mouse) = YFP-FAK (mouse) (UniProt P34152); assay: FRET or BRET
Sequence of UniProt P34152 (P34152 whole entry): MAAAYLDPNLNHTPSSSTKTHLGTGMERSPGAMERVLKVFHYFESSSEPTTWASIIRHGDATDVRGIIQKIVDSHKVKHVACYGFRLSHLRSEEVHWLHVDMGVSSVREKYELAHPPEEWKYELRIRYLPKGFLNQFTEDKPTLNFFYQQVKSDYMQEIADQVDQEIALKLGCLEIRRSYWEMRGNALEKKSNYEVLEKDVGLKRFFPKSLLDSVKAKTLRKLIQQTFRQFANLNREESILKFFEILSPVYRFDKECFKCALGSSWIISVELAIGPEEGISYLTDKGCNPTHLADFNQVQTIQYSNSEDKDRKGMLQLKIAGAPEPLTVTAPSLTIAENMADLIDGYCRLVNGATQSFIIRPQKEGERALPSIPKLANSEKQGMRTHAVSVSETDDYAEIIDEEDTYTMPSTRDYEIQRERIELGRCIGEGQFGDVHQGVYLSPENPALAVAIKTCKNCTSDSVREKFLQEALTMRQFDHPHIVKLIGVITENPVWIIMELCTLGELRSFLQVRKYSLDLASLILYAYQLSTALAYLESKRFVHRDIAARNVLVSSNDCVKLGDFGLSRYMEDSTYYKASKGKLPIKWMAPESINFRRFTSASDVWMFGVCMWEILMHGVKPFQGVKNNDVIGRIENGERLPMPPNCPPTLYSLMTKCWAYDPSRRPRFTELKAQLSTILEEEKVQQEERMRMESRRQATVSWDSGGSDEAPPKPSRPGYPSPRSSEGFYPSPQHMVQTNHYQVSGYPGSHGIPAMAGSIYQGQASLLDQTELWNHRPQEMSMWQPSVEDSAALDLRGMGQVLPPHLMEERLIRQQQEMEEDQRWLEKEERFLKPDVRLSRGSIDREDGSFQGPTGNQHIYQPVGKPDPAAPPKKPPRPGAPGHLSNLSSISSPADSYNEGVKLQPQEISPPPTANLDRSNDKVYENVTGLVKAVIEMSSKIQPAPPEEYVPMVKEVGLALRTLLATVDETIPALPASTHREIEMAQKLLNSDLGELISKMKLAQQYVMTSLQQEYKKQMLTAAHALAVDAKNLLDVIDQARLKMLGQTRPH

Sequence of UniProt O35346 (O35346 whole entry): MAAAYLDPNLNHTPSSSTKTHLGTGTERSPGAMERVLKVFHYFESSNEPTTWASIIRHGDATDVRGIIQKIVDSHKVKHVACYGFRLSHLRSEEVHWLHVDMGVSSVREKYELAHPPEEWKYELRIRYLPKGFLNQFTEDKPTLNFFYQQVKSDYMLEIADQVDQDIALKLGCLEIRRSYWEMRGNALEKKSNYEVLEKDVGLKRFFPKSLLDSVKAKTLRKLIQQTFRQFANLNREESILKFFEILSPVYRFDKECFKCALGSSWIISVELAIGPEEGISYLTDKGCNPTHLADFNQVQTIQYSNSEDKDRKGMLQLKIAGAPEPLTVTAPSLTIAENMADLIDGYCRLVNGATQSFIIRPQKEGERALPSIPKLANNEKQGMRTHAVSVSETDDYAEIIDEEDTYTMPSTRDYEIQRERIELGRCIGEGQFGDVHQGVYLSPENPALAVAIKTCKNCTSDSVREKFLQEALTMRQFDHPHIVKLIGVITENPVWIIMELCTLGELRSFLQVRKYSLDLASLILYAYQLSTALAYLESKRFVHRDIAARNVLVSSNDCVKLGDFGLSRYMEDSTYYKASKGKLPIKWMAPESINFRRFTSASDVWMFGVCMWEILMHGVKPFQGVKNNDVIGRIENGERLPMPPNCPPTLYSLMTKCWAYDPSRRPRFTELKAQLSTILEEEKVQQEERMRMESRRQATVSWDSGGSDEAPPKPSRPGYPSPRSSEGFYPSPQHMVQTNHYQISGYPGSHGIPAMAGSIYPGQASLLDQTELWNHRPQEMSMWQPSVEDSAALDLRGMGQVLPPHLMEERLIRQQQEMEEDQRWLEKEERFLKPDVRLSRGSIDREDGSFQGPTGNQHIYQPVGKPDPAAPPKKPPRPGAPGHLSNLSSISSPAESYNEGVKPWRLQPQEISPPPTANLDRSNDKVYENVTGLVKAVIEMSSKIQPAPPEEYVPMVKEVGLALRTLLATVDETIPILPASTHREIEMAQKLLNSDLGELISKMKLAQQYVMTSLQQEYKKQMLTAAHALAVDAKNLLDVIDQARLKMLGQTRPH

- fold co-immunoprecipitation against WT-FRNK [1]: 5 fold
- FRET efficiency (YFP-FAK (mouse)): 53%
Substance: cyan fluorescent protein (CFP) S217A-FRNK (natural protein)
